Measured values published in publication PMC11096365, “Cryo-EM structures of the human Elongator complex at work” (Nature Communications, 2024).

T1: human ELP123 (Homo sapiens, UniProt Q9H9T3)
T1 construct: gene ELP3; recombinant ELP123 subcomplex (1:1:1, two lobes), codon-optimized ORFs, C-terminal Twin-Strep-Tag on ELP3, insect cells (SuperSf9-3); ELP1 148 kDa, ELP2 93 kDa, ELP3-TST 65 kDa; with Elongator complex protein 1; Elongator complex protein 2
T1 sequence (Q9H9T3 1-547): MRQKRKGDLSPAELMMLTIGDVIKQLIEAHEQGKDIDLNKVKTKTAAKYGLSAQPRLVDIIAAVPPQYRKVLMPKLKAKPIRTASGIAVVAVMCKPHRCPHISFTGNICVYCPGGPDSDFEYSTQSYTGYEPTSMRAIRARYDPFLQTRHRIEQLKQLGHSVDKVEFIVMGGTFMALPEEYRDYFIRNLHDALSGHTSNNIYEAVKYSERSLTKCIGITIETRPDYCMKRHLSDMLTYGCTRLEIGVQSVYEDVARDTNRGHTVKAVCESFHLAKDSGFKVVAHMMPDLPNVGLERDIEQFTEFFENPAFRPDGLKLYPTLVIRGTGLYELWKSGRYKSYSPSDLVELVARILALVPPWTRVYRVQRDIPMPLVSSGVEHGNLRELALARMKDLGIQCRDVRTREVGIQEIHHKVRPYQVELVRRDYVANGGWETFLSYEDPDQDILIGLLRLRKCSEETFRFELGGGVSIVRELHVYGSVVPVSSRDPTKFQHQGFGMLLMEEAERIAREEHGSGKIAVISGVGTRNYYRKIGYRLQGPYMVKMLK
T1 sequence (O95163 1-1332 partner): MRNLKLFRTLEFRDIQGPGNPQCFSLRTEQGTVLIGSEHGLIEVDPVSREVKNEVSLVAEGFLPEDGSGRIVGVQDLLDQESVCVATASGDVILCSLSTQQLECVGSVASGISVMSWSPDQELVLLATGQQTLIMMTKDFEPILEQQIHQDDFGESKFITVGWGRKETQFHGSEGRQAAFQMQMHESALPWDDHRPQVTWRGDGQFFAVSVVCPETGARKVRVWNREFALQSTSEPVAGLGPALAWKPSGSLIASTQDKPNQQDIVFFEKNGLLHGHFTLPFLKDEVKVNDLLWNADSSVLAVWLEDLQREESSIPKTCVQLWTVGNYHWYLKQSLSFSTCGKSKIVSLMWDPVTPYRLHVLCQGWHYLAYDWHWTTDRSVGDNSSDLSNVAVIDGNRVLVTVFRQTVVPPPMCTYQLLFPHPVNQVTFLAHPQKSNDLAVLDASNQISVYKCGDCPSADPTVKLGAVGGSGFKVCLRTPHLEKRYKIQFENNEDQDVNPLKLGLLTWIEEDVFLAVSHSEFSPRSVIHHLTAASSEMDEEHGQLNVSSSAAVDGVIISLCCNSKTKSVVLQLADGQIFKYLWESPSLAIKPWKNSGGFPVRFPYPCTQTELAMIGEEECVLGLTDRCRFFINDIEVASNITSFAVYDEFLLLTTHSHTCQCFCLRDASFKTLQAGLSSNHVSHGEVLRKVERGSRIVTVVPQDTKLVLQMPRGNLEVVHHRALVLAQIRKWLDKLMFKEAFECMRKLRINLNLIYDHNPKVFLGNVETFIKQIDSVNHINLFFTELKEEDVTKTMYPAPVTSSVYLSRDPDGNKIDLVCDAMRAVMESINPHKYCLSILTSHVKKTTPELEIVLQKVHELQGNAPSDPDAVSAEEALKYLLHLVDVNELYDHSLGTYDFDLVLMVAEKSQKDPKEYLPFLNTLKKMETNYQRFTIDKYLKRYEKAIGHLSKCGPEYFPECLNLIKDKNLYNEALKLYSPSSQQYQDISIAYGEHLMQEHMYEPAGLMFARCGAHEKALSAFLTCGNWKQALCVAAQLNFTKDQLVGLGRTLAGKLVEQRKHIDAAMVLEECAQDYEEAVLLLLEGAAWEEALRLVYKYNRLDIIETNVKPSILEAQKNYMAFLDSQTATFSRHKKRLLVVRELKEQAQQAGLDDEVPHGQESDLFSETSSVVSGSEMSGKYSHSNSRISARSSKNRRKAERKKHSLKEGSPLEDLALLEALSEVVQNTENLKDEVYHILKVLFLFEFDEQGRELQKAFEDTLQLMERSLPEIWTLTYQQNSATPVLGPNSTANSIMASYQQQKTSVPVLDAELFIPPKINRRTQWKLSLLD
T1 sequence (Q6IA86 1-826 partner): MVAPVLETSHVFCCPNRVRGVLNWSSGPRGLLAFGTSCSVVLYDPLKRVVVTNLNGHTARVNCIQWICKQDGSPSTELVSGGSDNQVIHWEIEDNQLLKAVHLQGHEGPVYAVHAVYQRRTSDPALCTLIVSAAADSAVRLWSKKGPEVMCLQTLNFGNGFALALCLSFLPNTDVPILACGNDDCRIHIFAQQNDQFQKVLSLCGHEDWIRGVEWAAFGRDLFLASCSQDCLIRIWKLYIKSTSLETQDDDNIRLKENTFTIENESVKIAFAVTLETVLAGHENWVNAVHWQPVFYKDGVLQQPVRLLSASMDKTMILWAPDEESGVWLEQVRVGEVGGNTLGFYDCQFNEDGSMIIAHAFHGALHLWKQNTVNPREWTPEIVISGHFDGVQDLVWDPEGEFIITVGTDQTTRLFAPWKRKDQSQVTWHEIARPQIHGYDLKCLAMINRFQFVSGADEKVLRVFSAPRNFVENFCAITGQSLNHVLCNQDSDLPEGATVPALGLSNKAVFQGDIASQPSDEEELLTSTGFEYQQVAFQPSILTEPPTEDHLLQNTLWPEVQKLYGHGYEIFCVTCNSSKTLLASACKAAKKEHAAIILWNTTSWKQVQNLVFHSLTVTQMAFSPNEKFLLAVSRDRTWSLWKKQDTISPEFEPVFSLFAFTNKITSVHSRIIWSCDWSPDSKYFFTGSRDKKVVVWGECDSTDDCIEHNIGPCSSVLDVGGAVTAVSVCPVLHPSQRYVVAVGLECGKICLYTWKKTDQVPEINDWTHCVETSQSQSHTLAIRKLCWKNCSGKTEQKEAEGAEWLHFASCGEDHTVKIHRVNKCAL

B1: tRNAGlnUUG (structured_RNA)
RNA: GGCCCCAUGGUGUAAUGGUUAGCACUCUGGACUUUGAAUCCAGCGAUCCGAGUUCAAAUCUCGGUGGGACCUCCA

Experiments:
[1] = target: T1, human ELP123; experiment: cryo-EM structure ([…] Å); assay type: binding; details: with tRNA-GlnUUG and SAM; KAT domain of ELP3; pH 7.5; hydrolysis induced by tRNA
[2] = target: ELP1;ELP2;ELP3 K280A (Homo sapiens;Homo sapiens;Homo sapiens, UniProt O95163;Q6IA86;Q9H9T3 1-1332;1-826;1-547, ||K280A); experiment: MST; MST: 20 mM HEPES pH 7.5, 100 mM NaCl, 5 mM DTT, 0.05% Tween 20; incubated at 4 C 30 min, measured at 25 C; Cy5-tRNA 14 or 30 nM. Cryo-EM: 20 mM HEPES pH 7.5, 100 mM NaCl, 2 mM MgCl2, 2 mM DTT; details: protein: recombinant;recombinant;recombinant; tags: ;;C-terminal Twin-Strep-Tag; chain copies: 2;2;2; label: internal Cy5 (5% Cy5-CTP) for MST; tRNA fold
[3] = target: ELP1;ELP2;ELP3 H476A (Homo sapiens;Homo sapiens;Homo sapiens, UniProt O95163;Q6IA86;Q9H9T3 1-1332;1-826;1-547, ||H476A); experiment: as above; details: protein: recombinant;recombinant;recombinant; tags: ;;C-terminal Twin-Strep-Tag; chain copies: 2;2;2; label: internal Cy5 (5% Cy5-CTP) for MST; tRNA fold
[4] = target: ELP1;ELP2;ELP3 R402T (Homo sapiens;Homo sapiens;Homo sapiens, UniProt O95163;Q6IA86;Q9H9T3 1-1332;1-826;1-547, ||R402T); experiment: as above; details: protein: recombinant;recombinant;recombinant; tags: ;;C-terminal Twin-Strep-Tag; chain copies: 2;2;2; label: internal Cy5 (5% Cy5-CTP) for MST; tRNA fold
[5] = target: ELP1;ELP2;ELP3 Y529A/Y530A (Homo sapiens;Homo sapiens;Homo sapiens, UniProt O95163;Q6IA86;Q9H9T3 1-1332;1-826;1-547, ||Y529A;Y530A); experiment: as above; details: protein: recombinant;recombinant;recombinant; tags: ;;C-terminal Twin-Strep-Tag; chain copies: 2;2;2; label: internal Cy5 (5% Cy5-CTP) for MST; tRNA fold
[6] = target: ELP1;ELP2;ELP3 R242K (Homo sapiens;Homo sapiens;Homo sapiens, UniProt O95163;Q6IA86;Q9H9T3 1-1332;1-826;1-547, ||R242K); experiment: as above; details: protein: recombinant;recombinant;recombinant; tags: ;;C-terminal Twin-Strep-Tag; chain copies: 2;2;2; label: internal Cy5 (5% Cy5-CTP) for MST; tRNA fold
[7] = target: ELP1;ELP2;ELP3 K164A (Homo sapiens;Homo sapiens;Homo sapiens, UniProt O95163;Q6IA86;Q9H9T3 1-1332;1-826;1-547, ||K164A); experiment: as above; details: protein: recombinant;recombinant;recombinant; tags: ;;C-terminal Twin-Strep-Tag; chain copies: 2;2;2; label: internal Cy5 (5% Cy5-CTP) for MST; tRNA fold
[8] = target: ELP1;ELP2;ELP3 Y363A (Homo sapiens;Homo sapiens;Homo sapiens, UniProt O95163;Q6IA86;Q9H9T3 1-1332;1-826;1-547, ||Y363A); experiment: as above; details: protein: recombinant;recombinant;recombinant; tags: ;;C-terminal Twin-Strep-Tag; chain copies: 2;2;2; label: internal Cy5 (5% Cy5-CTP) for MST; tRNA fold
[9] = target: ELP1;ELP2;ELP3 wild type (Homo sapiens;Homo sapiens;Homo sapiens, UniProt O95163;Q6IA86;Q9H9T3 1-1332;1-826;1-547, ||); experiment: as above; details: protein: recombinant;recombinant;recombinant; tags: ;;C-terminal Twin-Strep-Tag; chain copies: 2;2;2; label: internal Cy5 (5% Cy5-CTP) for MST; tRNA fold
[10] = target: ELP1;ELP2;ELP3 E474A (Homo sapiens;Homo sapiens;Homo sapiens, UniProt O95163;Q6IA86;Q9H9T3 1-1332;1-826;1-547, ||E474A); experiment: as above; details: protein: recombinant;recombinant;recombinant; tags: ;;C-terminal Twin-Strep-Tag; chain copies: 2;2;2; label: internal Cy5 (5% Cy5-CTP) for MST; tRNA fold

Chain of ELP1;ELP2;ELP3 Y529A/Y530A (Q9H9T3 whole entry Y529A/Y530A, chain 3 of 3, one chain of several): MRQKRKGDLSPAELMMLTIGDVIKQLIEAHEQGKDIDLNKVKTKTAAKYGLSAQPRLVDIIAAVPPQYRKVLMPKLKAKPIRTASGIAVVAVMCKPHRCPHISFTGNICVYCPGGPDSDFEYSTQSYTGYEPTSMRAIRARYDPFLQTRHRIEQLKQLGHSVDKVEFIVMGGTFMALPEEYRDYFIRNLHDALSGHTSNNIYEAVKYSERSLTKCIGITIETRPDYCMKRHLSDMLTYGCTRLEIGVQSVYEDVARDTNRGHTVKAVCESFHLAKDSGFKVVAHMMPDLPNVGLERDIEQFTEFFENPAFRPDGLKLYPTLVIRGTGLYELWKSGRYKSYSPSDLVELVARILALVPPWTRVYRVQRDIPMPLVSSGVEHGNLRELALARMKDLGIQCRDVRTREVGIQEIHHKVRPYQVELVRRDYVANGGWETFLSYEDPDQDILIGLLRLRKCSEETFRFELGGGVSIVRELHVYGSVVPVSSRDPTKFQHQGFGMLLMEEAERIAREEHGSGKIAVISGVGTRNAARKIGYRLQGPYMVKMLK

| Molecule | cryo-EM structure (2.87 Å) [1] | binding result [2] | binding result [3] | binding result [4] | Kd [5] [nM] | binding result [6] | binding result [7] | binding result [8] | Kd [9] [nM] | binding result [10] |
| --- | --- | --- | --- | --- | --- | --- | --- | --- | --- | --- |
| CC(=O)SCCNC(=O)CCNC(=O)[C@H](O)C(C)(C)COP(=O)(O)OP(=O)(O)OC[C@H]1O[C@@H](n2cnc3c(N)ncnc32)[C@H](O)[C@@H]1OP(=O)(O)O [acetyl-CoA] | well-resolved ligand density that unambiguously fits a complete acetyl-CoA molecule |  |  |  |  |  |  |  |  |  |
| B1 |  | binds | binds | binds | 94.7 ± 5.2 | binds | binds | binds | 37.6 ± 5.3 | binds |
